Results on 1 molecule are retold here after patent publication US20170174791A1 (RAMOT AT TEL AVIV UNIVERSITY, published 2017).

For the test, the target named is bovine serum albumin (BSA) (bovine, UniProt P02769 25-607). Briefly: ELISA, BSA-coated plate, goat-anti-human HRP detection. For orientation: In an ELISA, binding on a coated surface is turned into a signal by an enzyme label.
Sequence of bovine serum albumin (BSA) (P02769 25-607 limits assumed): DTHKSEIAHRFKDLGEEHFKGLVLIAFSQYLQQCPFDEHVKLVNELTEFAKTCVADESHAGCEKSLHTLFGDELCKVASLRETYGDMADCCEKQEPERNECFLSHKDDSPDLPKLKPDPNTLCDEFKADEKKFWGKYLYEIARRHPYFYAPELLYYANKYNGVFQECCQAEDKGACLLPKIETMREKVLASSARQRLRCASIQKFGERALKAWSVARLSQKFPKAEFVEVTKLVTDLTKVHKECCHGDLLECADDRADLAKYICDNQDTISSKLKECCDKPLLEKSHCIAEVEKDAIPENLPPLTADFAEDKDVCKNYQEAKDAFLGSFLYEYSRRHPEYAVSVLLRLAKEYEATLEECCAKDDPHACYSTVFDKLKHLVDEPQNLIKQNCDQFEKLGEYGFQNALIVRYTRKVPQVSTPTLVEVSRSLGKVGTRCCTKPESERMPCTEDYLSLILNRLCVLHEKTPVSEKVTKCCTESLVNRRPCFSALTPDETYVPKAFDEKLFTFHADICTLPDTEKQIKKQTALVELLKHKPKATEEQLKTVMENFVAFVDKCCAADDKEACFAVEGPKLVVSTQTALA

B1: T427-αPE (B11 clone) IgG (bispecific, CD30 and PE38) (bispecific antibody)
light 1: not shown
heavy 1: not shown
light 2: MDIVLTQPPSASGTPGQRVTISCSGTSSDVGNSNLVSWYQQLPGTAPKLLIYGNSNRPSGVPDRFSGSKSGTSASLAISGLRSEDEADYYCCSYAGTGSPDVFGTGTKLTVLGQPKAAPSVTLFPPSSEELQANKATLVCLISDFYPGAVTVAWKADSSPVKAGVETTTPSKQSNNKYAASSYLSLTPEQWKSHRSYSCQVTHEGSTVEKTVAPAECS
heavy 2: MEVQLLETGGGLVQPGGSLRLSCAASGFTFDNYAINWVRQAPGKGLEWVSGISWNSGSIGYADSVKGRFTISRDNSKNTLYLQMNSLRAEDTAVYYCARGAPHYGGRGEFDFWGQGTLVTVSSASTKGPSVFPLAPSSKSTSGGTAALGCLVKDYFPEPVTVSWNSGALTSGVHTFPAVLQSSGLYSLSSVVTVPSSSLGTQTYICNVNHKPSNTKVDKRVEPKSCDKTHTCPPCPAPELLGRPSVFLFPPKPKDTLMISRTPEVTCVVVDVSHEDPEVKFNWYVDGVEVHNAKTKPREEQYNSTYRVVSVLTVLHQDWLNGKEYKCKVSNKALPAPIEKTISKAKGQPREPQVCTLPPSREEMTKNQVSLSCAVKGFYPSDIAVEWESNGQPENNYKTTPPVLDSDGSFFLVSKLTVDKSRWQQGNVFSCSVMHEALHNHYTQKSLSLSPGK
notes: also called T427-αPE (bispecific)
For B1, the binding result is “no binding”.
